Patent publication US20260049103A1, “PEPTIDE, AND COMPOSITION THEREOF AND USE THEREOF” (WINKEY TECHNOLOGY USA INC, priority 2023, published 2026)

System: Human keratinocytes (HaCaT)
Test: Cell scratch assay
Format: cell-based
Conditions: 24 h after scratch, peptides 12.5 ppm, EGF 50 U/mL, compared with blank control, FIG. 8
Method: Human keratinocytes (HaCaT) were purchased from the Kunming Cell Bank of China Center for Type Culture Collection under the Chinese Academy of Sciences.
Polypeptide group: Peptide (13) and peptide (20). The test concentrations of all the above samples were 12.5 ppm.
Blank control group: PBS.
Positive control group: 50 U/mL of EGF.
A bottle of HaCaT cells in good exponential growth phase was taken. A 0.25% trypsin digestion solution was added so that digestion allowed the adherent cells to fall off, counting 1 to 4×10^5 cells/mL, which were prepared into a cell suspension.
The cells were inoculated into a 24-well plate at a density of 150,000 cells/well, with 2 mL cell suspension per well. After the cells attached to the wall and grew to 100% confluence, the culture medium was replaced with a medium containing 0.5%-1% fetal bovine serum to maintain the cells for 24 h for synchronization. A sterilized pipette tip was used to scratch a wound, the detached cells were washed off with PBS, and the samples to be tested were added. The incubation was continued in the 5% CO2 incubator at 37° C., and the migration of cells was observed under an optical microscope after 24 h.
The scratch migration experiment of cells can reflect the proliferation and repair ability of cells. […]

B1: EGF: positive control group: 50 U/mL of EGF in the cell scratch assay (protein, UniProt P01133 23-1207, looked up)
Pro-epidermal growth factor: PQHWSCPEGTLAGNGNSTCVGPAPFLIFSHGNSIFRIDTEGTNYEQLVVDAGVSVIMDFHYNEKRIYWVDLERQLLQRVFLNGSRQERVCNIEKNVSGMAINWINEEVIWSNQQEGIITVTDMKGNNSHILLSALKYPANVAVDPVERFIFWSSEVAGSLYRADLDGVGVKALLETSEKITAVSLDVLDKRLFWIQYNREGSNSLICSCDYDGGSVHISKHPTQHNLFAMSLFGDRIFYSTWKMKTIWIANKHTGKDMVRINLHSSFVPLGELKVVHPLAQPKAEDDTWEPEQKLCKLRKGNCSSTVCGQDLQSHLCMCAEGYALSRDRKYCEDVNECAFWNHGCTLGCKNTPGSYYCTCPVGFVLLPDGKRCHQLVSCPRNVSECSHDCVLTSEGPLCFCPEGSVLERDGKTCSGCSSPDNGGCSQLCVPLSPVSWECDCFPGYDLQLDEKSCAASGPQPFLLFANSQDIRHMHFDGTDYGTLLSQQMGMVYALDHDPVENKIYFAHTALKWIERANMDGSQRERLIEEGVDVPEGLAVDWIGRRFYWTDRGKSLIGRSDLNGKRSKIITKENISQPRGIAVHPMAKRLFWTDTGINPRIESSSLQGLGRLVIASSDLIWPSGITIDFLTDKLYWCDAKQSVIEMANLDGSKRRRLTQNDVGHPFAVAVFEDYVWFSDWAMPSVMRVNKRTGKDRVRLQGSMLKPSSLVVVHPLAKPGADPCLYQNGGCEHICKKRLGTAWCSCREGFMKASDGKTCLALDGHQLLAGGEVDLKNQVTPLDILSKTRVSEDNITESQHMLVAEIMVSDQDDCAPVGCSMYARCISEGEDATCQCLKGFAGDGKLCSDIDECEMGVPVCPPASSKCINTEGGYVCRCSEGYQGDGIHCLDIDECQLGEHSCGENASCTNTEGGYTCMCAGRLSEPGLICPDSTPPPHLREDDHHYSVRNSDSECPLSHDGYCLHDGVCMYIEALDKYACNCVVGYIGERCQYRDLKWWELRHAGHGQQQKVIVVAVCVVVLVMLLLLSLWGAHYYRTQKLLSKNPKNPYEESSRDVRSRRPADTEDGMSSCPQPWFVVIKEHQDLKNGGQPVAGEDGQAADGSMQPTSWRQEPQLCGMGTEQGCWIPVSSDKGSCPQVMERSFHMPSYGTQTLEGGVEKPHSLLSANPLWQQRALDPPHQMELTQ
modifications: Pro-epidermal growth factor
notes: positive control group: 50 U/mL of EGF in the cell scratch assay
cell proliferation and migration (scratch spacing): obvious cell proliferation and migration
